# The supplement of paper PMC7877785
# ± gives the uncertainty stated by the source.
# Assay: self-splicing fitness, log relative to wild type (ln ratio); higher = more splicing; Tetrahymena group I intron in knt gene, E. coli kanamycin selection, DiMSum; sequences stand for … in CUCUCU…GGAGGGAAAAGUUAUCAGGCAUGCACCUGGUAGCUAGUCUUUAAACCAAUAGAUUGCAUCGGUUUAAAAGGCAAGACCGUCAAAUUGCGGGAAAGGGGUCAACAGCCGUUCAGUACCAAGUCUCAGGGGAAACUUUGAGAUGGCCUUGCAAAGGGUAUGGUAAUAAGCUGACGGACAUGGUCCUAACCACGCAGCCAAGUCCUAAGUCAACAGAUCUUCUGUUGAUAUGGAUGCAGUUCACAGACUAAAUGUCGGUCGGGGAAGAUGUAUUCUUCUCAUAAGAUAUAGUCGGACCUCUCCUUAAUGGGAGCUAGCGGAUGAAGUGAUGCAACACUGGAGCCGCUGGGAACUAAUUUGUAUGCGAAAGUAUAUUGAUUAGUUUUGGAGUACUCGUGGUCG
# Summary of the method: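 Colonies from six replicate transformations of E. coli BL21(DE3) were pooled and amplicon-sequenced on an Illumina HiSeq 2500. The library placed an intron with all eight P1ex-region nucleotides randomised inside the knt kanamycin-resistance gene on pET-22b(+), and cells grew overnight at 37°C or 30°C on LB agar with or without 25 μg/mL kanamycin (plus 100 μg/mL carbenicillin, 50 μM IPTG, 0.2% rhamnose). Fitness is the DiMSum error-weighted combination of wild-type-normalised replicate fold changes, kanamycin versus none.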
Sequence,self-splicing fitness (ln) (30 °C),self-splicing fitness (ln) (37 °C)
AUAGAGCAAUAUUACGCAGA,-2.57 ± 0.21,-1.84 ± 0.16
UUGGAGCAAUAUUACGGAUG,-3.54 ± 0.34,-2.12 ± 0.4
GCUCAGCAAUAUUACGGCUC,-0.525 ± 0.13,0.408 ± 0.17
GACAAGCAAUAUUACGGCGC,-0.29 ± 0.098,0.11 ± 0.12
AGGGAGCAAUAUUACGACGC,–,-1.54 ± 0.45
AAACAGCAAUAUUACGUUCG,-1.23 ± 0.051,-0.286 ± 0.068
UAAUAGCAAUAUUACGAUGU,-2.78 ± 0.18,-2.48 ± 0.19
UACAAGCAAUAUUACGUACC,-2.83 ± 0.19,-1.93 ± 0.19
GAUCAGCAAUAUUACGGUGU,-0.951 ± 0.072,0.335 ± 0.093
AUAUAGCAAUAUUACGAAUA,-1.36 ± 0.32,–
CUACAGCAAUAUUACGGGUA,-3.25 ± 0.19,-2.05 ± 0.12
GGGAAGCAAUAUUACGGAAG,-0.00595 ± 0.22,-1.47 ± 0.39
CGCAAGCAAUAUUACGACAU,-2.999 ± 0.017,-1.77 ± 0.034
CGUGAGCAAUAUUACGUAGA,-3.22 ± 0.2,-2.89 ± 0.22
GCCGAGCAAUAUUACGUACG,-2.46 ± 0.43,-1.56 ± 0.26
UAAGAGCAAUAUUACGUCUC,-4.3 ± 0.34,-2.31 ± 0.21
UCCAAGCAAUAUUACGUAGA,-0.92 ± 0.06,0.437 ± 0.092
AAAGAGCAAUAUUACGCAUC,-3.52 ± 0.35,-2.24 ± 0.35
UCGCAGCAAUAUUACGAGAA,-1.41 ± 0.34,-0.949 ± 0.21
UUUGAGCAAUAUUACGUAUU,-3.89 ± 0.27,-2.46 ± 0.21
ACAGAGCAAUAUUACGCGAU,-3.54 ± 0.24,-3.29 ± 0.3
AUUUAGCAAUAUUACGAGGG,–,-1.34 ± 0.28
AUUUAGCAAUAUUACGAACA,-0.709 ± 0.15,-0.537 ± 0.17
AAAUAGCAAUAUUACGUUUA,-1.85 ± 0.15,-1.03 ± 0.13
AGGAAGCAAUAUUACGCUGU,-2.29 ± 0.29,–

Sequence,self-splicing fitness (ln) (30 °C),self-splicing fitness (ln) (37 °C)
AAAUAGCAAUAUUACGCUCU,-0.111 ± 0.075,-0.0401 ± 0.091
AGGGAGCAAUAUUACGGUUU,-3.83 ± 0.24,-2.39 ± 0.26
CGUCAGCAAUAUUACGGAGC,-3.85 ± 0.42,-1.95 ± 0.26
GUGAAGCAAUAUUACGCGUA,-0.298 ± 0.14,0.0699 ± 0.14
AGCGAGCAAUAUUACGCUUU,–,-2.89 ± 0.27
CAAGAGCAAUAUUACGGAUA,-2.87 ± 0.23,-2.32 ± 0.29
UUACAGCAAUAUUACGUAGU,-2.7 ± 0.15,-3.5 ± 0.33
UGGUAGCAAUAUUACGAACC,-2.54 ± 0.29,-1.93 ± 0.28
CAUCAGCAAUAUUACGGUAU,-2.95 ± 0.13,-1.13 ± 0.14
GUUAAGCAAUAUUACGAUAA,-1.48 ± 0.18,-0.923 ± 0.2
CUAUAGCAAUAUUACGGUUA,-2.91 ± 0.2,-2.84 ± 0.19
AGUGAGCAAUAUUACGCGAU,-3.96 ± 0.42,-1.8 ± 0.24
UCAGAGCAAUAUUACGGAUU,-3.58 ± 0.19,-2.68 ± 0.23
UAUUAGCAAUAUUACGCCUG,-0.0456 ± 0.13,0.00497 ± 0.16
CAUCAGCAAUAUUACGUGUG,-2.72 ± 0.092,-1.38 ± 0.08
CCGGAGCAAUAUUACGCUAU,–,-2.1 ± 0.2
CGCAAGCAAUAUUACGCUAC,–,-2.82 ± 0.48
AGCAAGCAAUAUUACGACUC,-1.12 ± 0.072,-0.865 ± 0.08
CUUGAGCAAUAUUACGAACG,-0.921 ± 0.13,0.12 ± 0.18
CUGGAGCAAUAUUACGGGGC,-4.12 ± 0.46,-2.29 ± 0.46
GAAAAGCAAUAUUACGAUCA,-0.39 ± 0.067,-0.234 ± 0.072
CUUGAGCAAUAUUACGGCAG,-1.01 ± 0.11,-0.0287 ± 0.15
CUAUAGCAAUAUUACGCCUC,-3.66 ± 0.32,-3.15 ± 0.37
CUAGAGCAAUAUUACGUACU,-3.83 ± 0.3,-3.27 ± 0.43
UUCGAGCAAUAUUACGAUGC,-1.44 ± 0.4,–
